T1: glutathione S-transferase (GST) fused with full-length (67 kilodalton) Fez1 protein (human, UniProt Q9Y250 1-596)
T1 construct: Order GST then Fez1 follows the usual pGEX layout; also called GST-fused Fez1; GST-fused full-length 67 kDa Fez1; not shown: glutathione-S-transferase (GST) of the pGEX fusion expression vector (Pharmacia)
T1 sequence: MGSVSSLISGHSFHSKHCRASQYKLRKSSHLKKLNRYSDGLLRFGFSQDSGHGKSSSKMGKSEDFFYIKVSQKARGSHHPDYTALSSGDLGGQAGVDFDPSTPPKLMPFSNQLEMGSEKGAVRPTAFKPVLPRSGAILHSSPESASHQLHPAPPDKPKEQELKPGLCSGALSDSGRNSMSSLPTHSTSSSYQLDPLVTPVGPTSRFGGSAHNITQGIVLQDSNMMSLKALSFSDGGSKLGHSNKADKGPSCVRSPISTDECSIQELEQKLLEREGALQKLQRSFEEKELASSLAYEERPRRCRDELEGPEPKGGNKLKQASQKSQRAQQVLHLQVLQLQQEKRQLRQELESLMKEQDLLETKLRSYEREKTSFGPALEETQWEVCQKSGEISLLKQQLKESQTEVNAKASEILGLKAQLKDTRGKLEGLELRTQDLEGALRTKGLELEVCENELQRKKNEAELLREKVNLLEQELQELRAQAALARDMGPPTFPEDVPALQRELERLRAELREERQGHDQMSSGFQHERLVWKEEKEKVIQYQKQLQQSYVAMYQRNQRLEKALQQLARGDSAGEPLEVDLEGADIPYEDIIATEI

B1: EF1-γ(M), ^35S-methionine-labeled in vitro translated deletion mutant of EF1-γ (other)
chain: GERVTLADITVVCTLLWLYKQVLEPSFRQAFPNTNRWFLTCINQPQFRAVLGEVKLCEKMAQFDAKKFAETQPKKDTPRKEKGSREEKQKPQAERKEEKKAAAPAPEEEMDECEQALAAEPKAKDPFAHLPKSTFVLDEFKRKYSNEDT
modifications: ^35S-methionine label ; 35S-labelled methionine residues (radiolabel), written M
B2: EF1-γ(N), ^35S-methionine-labeled in vitro translated deletion mutant of EF1-γ (other)
chain: MAAGTLYTYPENWRAFKALIAAQYSGAQVRVLSAPPHFHFGQTNRTPEFLRKFPAGKVPAFEGDDGFCVFESNAIAYYVSNEELRGSTPEAAAQVVQWVSFADSDIVPPASTWVFPTLGIMHHNKQATENAKEEVRRILGLLDAYLKTRTFLV
modifications: ^35S-methionine label ; 35S-labelled methionine residues (radiolabel), written M
B3: GST fused with EF1-γ(N) (other, human, UniProt P26641 1-153, looked up)
chain: B2 chain
notes: not shown: glutathione S-transferase (GST)
B4: ^35S-methionine-labeled in vitro translated full-length 67 kDa Fez1 (other)
chain: T1 sequence
modifications: ^35S-methionine label
notes: also called full-length (67 kDa) Fez1 protein
B5: ^35S-methionine-labeled in vitro translated EF1-α (other, UniProt P68104 1-462, looked up)
chain: MGKEKTHINIVVIGHVDSGKSTTTGHLIYKCGGIDKRTIEKFEKEAAEMGKGSFKYAWVLDKLKAERERGITIDISLWKFETSKYYVTIIDAPGHRDFIKNMITGTSQADCAVLIVAAGVGEFEAGISKNGQTREHALLAYTLGVKQLIVGVNKMDSTEPPYSQKRYEEIVKEVSTYIKKIGYNPDTVAFVPISGWNGDNMLEPSANMPWFKGWKVTRKDGNASGTTLLEALDCILPPTRPTDKPLRLPLQDVYKIGGIGTVPVGRVETGVLKPGMVVTFAPVNVTTEVKSVEMHHEALSEALPGDNVGFNVKNVSVKDVRRGNVAGDSKNDPPMEAAGFTAQVIILNHPGQISAGYAPVLDCHTAHIACKFAELKEKIDRRSGKKLEDGPKFLKSGDAAIVDMVPGKPMCVESFSDYPPLGRFAVRDMRQTVAVGVIKAVDKKAAGAGKVTKSAQKAQKAK
modifications: ^35S-methionine label

Assays:
[1] = biological target: T1, glutathione S-transferase (GST) fused …; experiment: in vitro binding of ^35S-labeled deletion mutants with GST-fused Fez1
Experimental: (§1) In vitro Transcription/Translation, GST-Fusion Protein and in vitro Binding Assay In vitro transcription and translation was performed using a commercially-available, rabbit reticulocyte-based system, (TNT™ T7 Quick Coupled Transcription/Translation System, Promega) by labeling with ^35S-methionine, according to supplier's instructions. GST-fusion proteins were isolated using a glutathione-agarose column (Pharmacia). Proteins were incubated in two binding buffers: buffer A (comprising 100 millimolar NaCl, 0.5% NP-40, 0.75 milligrams per milliliter bovine serum albumin (BSA), 20 millimolar Tris-HCl pH 8.0, and 1 millimolar EDTA) and buffer B (comprising 150 millimolar NaCl, 0.1% (v/v) Tween 20, 0.75 milligrams per milliliter BSA, 50 millimolar Tris-HCl pH 8.0, 5 millimolar EDTA, 10% (v/v) glycerol). After the glutathione-agarose beads had been pre-incubated in a 10% (w/v) BSA suspension, the beads were mixed with protein samples and washed 5 times, each wash comprising mixing the beads with 10 volumes of the binding buffer. After the beads had been washed, the bead-containing liquid was centrifuged to recover binding proteins. The samples were boiled for 3 minutes and then the proteins in the samples were separated by SDS-PAGE. The gel was dried and exposed to film for 4–24 hours at –80° C.

[2] = biological target: B4; experiment: in vitro binding assay (figure legend); by paragraph 373 the labeled partner was Fez1 and EF1-γ(N) was GST-fused
Experimental: as §1, with “C. […]” for “C.”

[3] = biological target: T1, glutathione S-transferase (GST) fused …; experiment: in vitro binding of ^35S-labeled full-length Fez1 with GST-fused full-length Fez1, buffer B
Experimental: as §1
The amino acid sequence of Fez1 comprises a leucine-zipper-like region. […]

[4] = biological target: T1, glutathione S-transferase (GST) fused …; experiment: in vitro binding of ^35S-methionine-labeled in vitro translated EFs to GST-fused Fez1, glutathione-agarose beads, SDS-PAGE
Experimental: as §1

Binder: B1
binding result [1]: no binding

Binder: B2
binding result [1]: binds

Binder: B3
binding result [2]: binds

Binder: B4
binding result [3]: binds

Binder: B5
binding result [4]: no binding

Source: patent publication US7141417 (THOMAS JEFFERSON UNIVERSITY, dated 2006)
